Assay results reported in PMC4022879, “Interactions Outside the Proteinase-binding Loop Contribute Significantly to the Inhibition of Activated Coagulation Factor XII by Its Canonical Inhibitor from Corn*^([image sbox.jpg])” (The Journal of Biological Chemistry, 2014).
Numbering of substitutions follows the chain as printed. Names may count otherwise.

B1: corn Hageman factor inhibitor (CHFI), control protein from Zea mays seeds (natural protein, UniProt P01088 29-138, looked up)
chain: SAGTSCVPGWAIPHNPLPSCRWYVTSRTCGIGPRLPWPELKRRCCRELADIPAYCRCTALSILMDGAIPPGPDAQLEGRLEDLPGCPREVQRGFAATLVTEAECNLATIS
notes: the mature protein has 127 amino acids, scissile bond Arg34-Leu35; numbers count on: the mature protein (PDB 1BEA); also called CHFI-ER; wild-type CHFI; source: bought: Enzyme Research Laboratories (from Z. mays seeds)
B2: CHFI-1245, full-size CHFI with Cys29 substituted by Asp (natural protein, Zea mays, UniProt P01088 29-138, looked up)
chain: B1 chain with C29D
notes: numbers count on: the mature protein (PDB 1BEA); also called C29D mutant; source: E. coli Rosetta-Gami 2 DE3, purified (Ni2+-agarose); not shown: His6, N-terminal, kept; C-terminal tag of 1.5 kDa (His tag inferred from pET-28a), C-terminal, kept

Biological target: activated coagulation factor XI (FXIa) (Activated two-chain form, cleaved after residue 387 (precursor numbering). Heavy and light chains are disulfide-linked, and the whole is a disulfide-linked homodimer; N-glycosylated. The commercial fu)
Sequence (chain, as listed by the source, chain 1 of 2): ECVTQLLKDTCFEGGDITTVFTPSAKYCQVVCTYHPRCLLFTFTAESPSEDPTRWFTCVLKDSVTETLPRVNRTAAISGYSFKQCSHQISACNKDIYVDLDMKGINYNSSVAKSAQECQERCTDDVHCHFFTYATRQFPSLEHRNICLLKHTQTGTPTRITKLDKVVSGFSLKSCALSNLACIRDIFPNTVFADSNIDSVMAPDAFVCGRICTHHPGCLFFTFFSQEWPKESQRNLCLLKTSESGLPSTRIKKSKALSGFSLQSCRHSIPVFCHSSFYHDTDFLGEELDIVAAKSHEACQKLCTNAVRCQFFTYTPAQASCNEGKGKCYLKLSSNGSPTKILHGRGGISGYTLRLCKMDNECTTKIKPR
Sequence (chain, as listed by the source, chain 2 of 2): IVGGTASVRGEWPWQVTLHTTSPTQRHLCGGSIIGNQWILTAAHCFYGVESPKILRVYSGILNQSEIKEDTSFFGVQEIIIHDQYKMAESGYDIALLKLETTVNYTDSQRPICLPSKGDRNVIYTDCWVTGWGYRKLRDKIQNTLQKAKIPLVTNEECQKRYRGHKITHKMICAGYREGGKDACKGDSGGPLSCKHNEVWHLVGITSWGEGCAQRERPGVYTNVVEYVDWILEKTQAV
Assay: chromogenic enzyme inhibition assay; 200 pM FXIa, 500 μM S2366, 37 °C, 110 mM Tris-HCl pH 8.0, 250 mM NaCl, 1% BSA; residual activity in triplicate at at least six inhibitor concentrations; Ki from a linear fit of 1/v against inhibitor concentration
Settings: both partners purified

| Binder | Ki [µM] |
| --- | --- |
| B1 | 5.4 ± 0.2 |
| B2 | 490 ± 110 |
